The source of these data is patent publication CN108503708A (BEIJING WISDOMAB BIOTECHNOLOGY CO LTD; GENRIX SHANGHAI …, dated 2018).

Assay [1] deals with T1, huCD47-D1-his (recombinant human CD47 extracellular region D1 with C-terminal His tag) (human (homo sapiens), UniProt Q08722 19-141).
T1 construct: Expressed in HEK293 cells; analyte in the Biacore measurements and antigen of the phage panning; also called huCD47-his; hCD47; not shown: His tag added at the C-terminus
Nature of the assay: solid-phase phage panning on huCD47-D1-his, three rounds.

Assay [2] deals with T1, huCD47-D1-his (recombinant human CD47 …). Put plainly: SPR BIAcore, by the method of Example 3 (antibody captured, huCD47-D1-his analyte). (In SPR one partner is held on a chip, and binding of the other changes the refractive index at the surface.)
The target in assay [3] is T2, hCD47-mFc (human CD47 extracellular region D1 fused to mouse IgG2a Fc) (human (homo sapiens)).
T2 construct: no linker is stated
Nature of the assay: competition ELISA: hCD47-mFc coated, fixed hCD172a-D1M1-His as competitor, antibody titrated. On the technique in general: In an ELISA, binding on a coated surface is turned into a signal by an enzyme label.

Assay [4] concerns the target T1, huCD47-D1-his (recombinant human CD47 …). Put plainly: SPR Biacore X100, antibody captured via anti-human Fc on CM5, huCD47-D1-his as analyte, 25 C.
For assay [5] the target is unchanged. Nature of the assay: SPR BIAcore, against hS2C3 as reference.
For assay [6] the target is unchanged. Put plainly: SPR BIAcore, by the method of Example 3 (antibody captured, huCD47-D1-his analyte). The source holds these as a separate data set.
Assay [7] concerns the target T2, hCD47-mFc (human CD47 extracellular …). Put plainly: competition ELISA by the method of Example 3 (hCD47-mFc coated, hCD172a-D1M1-His as competitor).
Assay [8] shares this target. The assay is described as above. This is another data set of the same source.
Assay [9] has the same target. Described as above. This is another data set of the same source.
Assay [10] has the same target. Put plainly: competition ELISA: hCD47-mFc coated, fixed hCD172a-D1M1-His as competitor, antibody titrated. This is another data set of the same source.

Some results are limits rather than exact numbers.

B1: S2H2 (mouse scFv clone displayed on phage) (scFv)
scFv: QVQLQQPGAEVVKPGASVKMSCKASGYTLSSYWMHWVKQRPGQGLEWIGTIDRSDSYISYNQKFKGKATLTVDTSSGTVYMQLNSLTSEDSAVYYCTRGGPYGSKMMDNWGQGTSVTVSSGGGGSGGGGSGGGGSDIQMNQSPSSLSASLGDTITITCHASQNINVWLSWYQQKPGNIPKLLIYKASNLHTGVPSRFSGSGSGTGFTLTISSLQPEDIATYYCQQGQSYPLTFGTGTKLELK
notes: also called 鼠单链抗体S2H2; 鼠单抗S2H2
In the case of B1, the binding result in assay [1] is recorded as “binds”.

B2: S2C3 (mouse scFv clone displayed on phage) (scFv)
scFv: QIQLQQSGPELVKPGASVKISCKASGYTFTDYYMHWVKQRPGQGLEWIGWINPSSGNTKYAQKFQDKATLTVATSSSTAYMQLSSLTSEDTAVYFCARREEDYFDYWGQGTLVTVSSGGGGSGGGGSGGGGSDIVMSQSPSSLAVSVGEKVTMSCKSSQSLLYPSNKKNYLTWYQQKPGQSPKLLIYWASTRESGVPDRFTGSGSGTDFTLTISSVKAEDLAVYYCQEYYAYPLSFGAGTKLEIK
notes: also called 鼠单链抗体S2C3; 鼠单抗S2C3
Consider B2, for which the binding result in [1] is “binds”.

B3: S4D12-IgG4 (mouse-human chimeric antibody, human IgG4-kappa) (antibody, V domains shown)
VH: QVQLQQPGAELVKPGASVKMSCKASGYTFTNYWMHWVKQRPGQGLEWIGVIAPSDNYTNYNQKFQGKATLTVDTSSSTAYMQLSSLTSEDSAVYYCTKGGKYSMDYWGQGTSVTVSS
VL: DVLMTQTPLSLPVSLGDQASISCRSSQSIVHSNGNTYLEWYLQKPGQSPKLLIYKVSNRFSGVPDRFSGSGSGTDFTLKISRVEAEDLGVYYCFQGSHVPFTFGSGTKLEIKR
notes: also called 人-鼠嵌合单抗S4D12
As usually defined, the Kd is the concentration at which binding is half-saturated. Usually koff stands for the first-order rate constant of dissociation. In general, kon refers to the second-order rate constant of association. Broadly, the IC50 is the concentration that gives 50% inhibition. Read a low IC50 as greater potency in that assay. With B3, in assay [2], the Kd stood at 8.56 nM, the koff was 0.011 s⁻¹ and the kon was found to be 1.28e+06 M⁻¹ s⁻¹. For the same molecule, in assay [3], the IC50 worked out at 3.89 nM. In [4], the Kd came to 10.1 nM, the dissociation rate constant (koff) amounted to 0.0142 s⁻¹ and the kon is 1.41e+06 M⁻¹ s⁻¹.

B4: H11E5+L25B8 (affinity-matured variant of hS2C3) (antibody, V domains shown)
VH: QVQLVQSGAEVKKPGASVKVSCKASGYTFTDYYMHWVRQAPGQRLEWMGWIYPSSGNTKYAQKFKDRVTMTRDTSTSTVYMELSSLRSEDTAVYYCARREEDYFDYWGQGTLVTVSS
VL: DIVMTQSPDSLAVSLGERATINCKSSQSLLYSSNKKNYLTWYQQKPGQPPKLLIYWASTRESGVPDRFSGSGSGTDFTLTISSLQAEDVAVYYCQQFYAYPISFGQGTKLEIK
notes: Humanized monoclonal antibody
As to B4, the “fold improvement of affinity over hS2C3” value in [5] was determined as 10 fold. In assay [6], the Kd came to 0.807 nM, the koff came to 0.00096 s⁻¹ and the kon turned out to be 1.19e+06 M⁻¹ s⁻¹. This molecule showed an IC50 in assay [7] below 5 nM. In assay [8], this molecule displayed an IC50 of 4.13 nM.

B5: hS2C3-IgG4 (humanized S2C3) (antibody, V domains shown)
VH: QVQLVQSGAEVKKPGASVKVSCKASGYTFTDYYMHWVRQAPGQRLEWMGWINPSSGNTKYAQKFQDRVTMTRDTSTSTVYMELSSLRSEDTAVYYCARREEDYFDYWGQGTLVTVSS
VL: DIVMTQSPDSLAVSLGERATINCKSSQSLLYPSNKKNYLTWYQQKPGQPPKLLIYWASTRESGVPDRFSGSGSGTDFTLTISSLQAEDVAVYYCQEYYAYPLSFGQGTKLEIK
Consider B5, for which the Kd came to 10.1 nM in [2] and 9.55 nM in assay [6]. For the same molecule, the koff in assay [2] is 0.011 s⁻¹; in assay [6], 0.0103 s⁻¹. For the same molecule, the kon turned out to be 1.09e+06 M⁻¹ s⁻¹ in assay [2] and 1.08e+06 M⁻¹ s⁻¹ in [6]. The figures for the IC50 in [7], in assay [9] and in assay [8] were below 5 nM, 3.36 nM and 4.13 nM, respectively.

B6: H10C7+L25B8 (affinity-matured variant of hS2C3) (antibody, V domains shown)
VH: QVQLVQSGAEVKKPGASVKVSCKASGYTFTDYYMHWVRQAPGQRLEWMGWIYPGSGNTRYSQKFKDRVTMTRDTSTSTVYMELSSLRSEDTAVYYCARREEDYFDYWGQGTLVTVSS
VL: DIVMTQSPDSLAVSLGERATINCKSSQSLLYSSNKKNYLTWYQQKPGQPPKLLIYWASTRESGVPDRFSGSGSGTDFTLTISSLQAEDVAVYYCQQFYAYPISFGQGTKLEIK
notes: Humanized monoclonal antibody
For B6, in assay [6], the Kd was determined as 1.11 nM, the koff is 0.00115 s⁻¹ and the on-rate constant (kon) came out at 1.03e+06 M⁻¹ s⁻¹. The IC50 in [7] was below 5 nM. Besides, the IC50 in assay [8] is 4.51 nM.

B7: S2H2-IgG4 (mouse-human chimeric antibody, human IgG4-kappa) (antibody, V domains shown)
VH: QVQLQQPGAEVVKPGASVKMSCKASGYTLSSYWMHWVKQRPGQGLEWIGTIDRSDSYISYNQKFKGKATLTVDTSSGTVYMQLNSLTSEDSAVYYCTRGGPYGSKMMDNWGQGTSVTVSS
VL: DIQMNQSPSSLSASLGDTITITCHASQNINVWLSWYQQKPGNIPKLLIYKASNLHTGVPSRFSGSGSGTGFTLTISSLQPEDIATYYCQQGQSYPLTFGTGTKLELKR
notes: also called 人-鼠嵌合单抗S2H2
In the case of B7, the IC50 in assay [10] was in the range of 2 to 5 nM. Further, the IC50 in assay [3] was determined as 2.08 nM. Further, in [4], the Kd is 9.71 nM, the off-rate (koff) was determined as 0.00696 s⁻¹ and the kon came out at 717000 M⁻¹ s⁻¹.

B8: Hu5F9-G4 (humanized anti-CD47 monoclonal antibody) (antibody, human IgG4, V domains shown)
VH: QVQLVQSGAEVKKPGASVKVSCKASGYTFTNYNMHWVRQAPGQRLEWMGTIYPGNDDTSYNQKFKDRVTITADTSASTAYMELSSLRSEDTAVYYCARGGYRAMDYWGQGTLVTVSS
VL: DIVMTQSPLSLPVTPGEPASISCRSSQSIVYSNGNTYLGWYLQKPGQSPQLLIYKVSNRFSGVPDRFSGSGSGTDFTLKISRVEAEDVGVYYCFQGSHVPYTFGQGTKLEIK
notes: Prepared after US 9017675B2; labelled IgG4; also called Hu5F9-IgG4; hu5F9-IgG4
Consider B8, for which the results for the IC50 in [3] and in assay [9] were 9.61 nM and 4.16 nM, respectively.

B9: hS4D12-IgG4 (humanized S4D12) (antibody, V domains shown)
VH: QVQLVQSGAEVKKPGASVKVSCKASGYTFTNYWMHWVRQRPGQGLEWIGVIAPSDNYTNYNQKFQGRVTMTVDTSTSTVYMELSSLRSEDTAVYYCTKGGKYSMDYWGQGTTVTVSS
VL: DIVMTQTPLSLPVTPGEPASISCRSSQSIVHSNGNTYLEWYLQKPGQSPQLLIYKVSNRFSGVPDRFSGSGSGTDFTLKISRVEAEDVGVYYCFQGSHVPFTFGQGTKLEIK
As for B9, in [2], the Kd was determined as 9.6 nM, the off-rate constant (koff) came to 0.0118 s⁻¹ and the kon turned out to be 1.22e+06 M⁻¹ s⁻¹. In assay [7], this molecule showed an IC50 below 5 nM. Further, the IC50 in [9] amounted to 2.68 nM.

B10: S4D12 (mouse scFv clone displayed on phage) (scFv)
scFv: QVQLQQPGAELVKPGASVKMSCKASGYTFTNYWMHWVKQRPGQGLEWIGVIAPSDNYTNYNQKFQGKATLTVDTSSSTAYMQLSSLTSEDSAVYYCTKGGKYSMDYWGQGTSVTVSSGGGGSGGGGSGGGGSDVLMTQTPLSLPVSLGDQASISCRSSQSIVHSNGNTYLEWYLQKPGQSPKLLIYKVSNRFSGVPDRFSGSGSGTDFTLKISRVEAEDLGVYYCFQGSHVPFTFGSGTKLEIK
notes: also called 鼠单链抗体S4D12; 鼠单抗S4D12
Turning to B10, in [1], the binding result is given as “binds”.

B11: S2C3-IgG4 (mouse-human chimeric antibody, human IgG4-kappa) (antibody, V domains shown)
VH: QIQLQQSGPELVKPGASVKISCKASGYTFTDYYMHWVKQRPGQGLEWIGWINPSSGNTKYAQKFQDKATLTVATSSSTAYMQLSSLTSEDTAVYFCARREEDYFDYWGQGTLVTVSS
VL: DIVMSQSPSSLAVSVGEKVTMSCKSSQSLLYPSNKKNYLTWYQQKPGQSPKLLIYWASTRESGVPDRFTGSGSGTDFTLTISSVKAEDLAVYYCQEYYAYPLSFGAGTKLEIKR
notes: also called 人-鼠嵌合单抗S2C3
For B11, in assay [2], the Kd was determined as 18.5 nM, the koff came to 0.0205 s⁻¹ and the kon came out at 1.11e+06 M⁻¹ s⁻¹. In addition, the IC50 in [10] lay in the range of 2 to 5 nM. Moreover, the IC50 in assay [3] stood at 5.19 nM. For the same molecule, in [4], the dissociation constant Kd amounted to 25.1 nM, the koff is 0.0222 s⁻¹ and the kon came to 886000 M⁻¹ s⁻¹.
